Source: US20210380703A1
Substitutions are numbered along the chain they refer to.

B1: 371_D05 (antibody, V domains shown)
VH: EVQLLESGGGLVQPGGSLRLSCAASGFTFDDYGMHWVRQAPGKGLEWVSGINYNGGYTSYADSVKGRFTISRDNSKNTLYLQMNSLRAEDTAVYYCARAATWHDTHLDYWGQGTLVTVSS
VL: DIQMTQSPSSLSASVGDRVTITCRASQSILTYLNWYQQKPGKAPKLLIYAASSLQSGVPSRFSGSGSGTDFTLTISSLQPEDFATYYCQQSYDSPLTFGGGTKVEIK
B2: 375_D02 (antibody, V domains shown)
VH: B1 VH with D30S, D31S, G33S, H35N, G50N
VL: B1 VL with D93E, S94L
B3: 365_G09 (antibody, V domains shown)
VH: B1 VH with D30S, D31S, G33S, H35N, T58K, A99G, T101N
VL: B1 VL with L30I, L47V, S52T, L54R, Q55A, D93N
B4: 366_D01 (antibody, V domains shown)
VH: B1 VH with D30S, D31S, G50S, S59G, T101N
VL: B1 VL with L33V, S52T, L54R, Q55A, D93E, S94N
B5: 366_E08 (antibody, V domains shown)
VH: B1 VH with D30S, G33S, H35N, G50N, A99G, T101N
VL: B1 VL with L30V, S52T, L54R, Q55H, D93S, S94N
B6: 367_G01 (antibody, V domains shown)
VH: B1 VH with D31S, H35N, S49A, G50S, G55S, S59G, A99G, T101N
VL: B1 VL with L30S, T31S, L47V, S52T, L54R, Q55A, S94L
B7: 366_F02 (antibody, V domains shown)
VH: B1 VH with D30S, D31S, H35N, G55S, S59G, A99G, T101N
VL: B1 VL with L47V, S52T, L54R, Q55H, S94N
B8: 374_A10 (antibody, V domains shown)
VH: B1 VH with D30S, D31S
VL: B1 VL with T31S, L33V, S52T, L54R, Q55A, S94T
B9: 373_G06 (antibody, V domains shown)
VH: B1 VH with D30S, D31S, S49A, G50S, G55S, S59G
VL: B1 VL with T31S, L33V, S52T, Q55A, D93N, S94L
B10: 366_B07 (antibody, V domains shown)
VH: B1 VH with D30S, H35N, A99G, T101N
VL: B1 VL with L30V, T31S, L47V, A51T, S52T, L54R, Q55A, D93N
B11: 366_A04 (antibody, V domains shown)
VH: B1 VH with D30S, D31S, H35N, S49A, T101N, H106A
VL: B1 VL with L47V, S52T, Q55A, Y92D
B12: 365_G04 (antibody, V domains shown)
VH: B1 VH with D31S, G33S, H35N, S49A, S59G, A99G, T101N
VL: B1 VL with L30V, T31S, L33V, L47V, S52T, Q55A, S94T
B13: 367_C10 (antibody, V domains shown)
VH: B1 VH with D31S, G33S, H35N, A99G, T101N, H106A
VL: B1 VL with L30V, T31S, L33V, A51V, S52T, L54R, Q55A, D93E, S94T
B14: 365_G05 (antibody, V domains shown)
VH: B1 VH with D30S, D31S, H35N, T58K, S59G, A99G, T101N, H106A
VL: B1 VL with T31S, L47V, S52T, Q55A, D93E, S94N
B15: 367_D03 (antibody, V domains shown)
VH: B1 VH with D31S, G33S, H35N, G50S, S59G, A99G, T101N
VL: B1 VL with L30I, S52T, L54R, Q55A, S94T
B16: 367_C07 (antibody, V domains shown)
VH: B1 VH with D30S, D31S, G33S, H35N, G50S, G55S, S59G, A99G, T101N
VL: B1 VL with L33V, S52T, L54R, Q55A, D93N, S94L
B17: 367_A06 (antibody, V domains shown)
VH: B1 VH with D31S, H35N, S49A, G50S, T58K, S59G, A99G, T101N
VL: B1 VL with T31S, L33V, S52T, L54R, Q55H, S94T
B18: 365_H07 (antibody, V domains shown)
VH: B1 VH with D31S, G33S, H35N, A99G, T101N
VL: B1 VL with L30S, L33V, S52T, L54R, Q55H, D93E, S94N
B19: 367_B04 (antibody, V domains shown)
VH: B1 VH with D31S, G33S, H35N, G55S, T58K, A99G, T101N
VL: B1 VL with T31S, S52T, L54R, Q55A, D93E, S94L
B20: 367_A08 (antibody, V domains shown)
VH: B1 VH with D31S, H35N, S49A, A99G, T101N
VL: B1 VL with A51V, S52T, L54R, Q55A
B21: 367_E05 (antibody, V domains shown)
VH: B1 VH with D30S, D31S, H35N, S49A, A99G, T101N
VL: B1 VL with T31S, S52T, L54R, Q55H
B22: 365_F02 (antibody, V domains shown)
VH: B1 VH with D30S, D31S, G33S, H35N, T58K, S59G, A99G, T101N
VL: B1 VL with L33V, S52T, L54R, Q55H, S94T
B23: 366_A02 (antibody, V domains shown)
VH: B1 VH with D31S, H35N, S49A, G50S, G55S, T58K, S59G, T101N
VL: B1 VL with L30V, T31S, L33V, S52T, L54R, Q55A, S94L
B24: 375_H04 (antibody, V domains shown)
VH: B1 VH with D30S, D31S, S49A, G55S, S59G
VL: B1 VL with T31S, L47V, S52T, L54R, Q55A, D93S, S94N
B25: 376_F09 (antibody, V domains shown)
VH: B1 VH with D31S, G33S, G50S, T58K
VL: B1 VL with L33V, A51V, S52T, L54R, Q55A, S94T
B26: 366_F10 (antibody, V domains shown)
VH: B1 VH with D31S, G33S, H35N, S49A, S59G, T101N
VL: B1 VL with L30V, T31S, L47V, S52T, L54R, Q55A, S94T
B27: 376_D08 (antibody, V domains shown)
VH: B1 VH with D31S, H35N, S49A, G50N, G55S, T58K, H106A
VL: B1 VL with L47V, A50Y, S52N, S53N, L54R, Q55P, D93S, S94N
B28: 374_B07 (antibody, V domains shown)
VH: B1 VH with D30S, D31S, G50S, T58K
VL: B1 VL with L30I, T31S, S52T, Q55A, D93E
B29: 366_D03 (antibody, V domains shown)
VH: B1 VH with D31S, G50S, S59G, T101N
VL: B1 VL with T31S, L33V, S52T, L54R, Q55A, S94L
B30: 366_B05 (antibody, V domains shown)
VH: B1 VH with D30S, G33S, H35N, G55S, T58K, A99G, T101N, H106A
VL: B1 VL with L30S, T31S, L47V, A51V, S52T, L54R, Q55A, D93E, S94L
B31: 374_A12 (antibody, V domains shown)
VH: B1 VH with D31S, G50S
VL: B1 VL with S52T, L54R, Q55A, Y92D, D93S, S94N
B32: 375_C03 (antibody, V domains shown)
VH: B1 VH with D31S, G33S
VL: B1 VL with T31S, L33V, L47V, S52T, L54R, Q55A, D93E
B33: 367_A10 (antibody, V domains shown)
VH: B1 VH with D30S, D31S, H35N, S49A, G55S, A99G, T101N
VL: B1 VL with L30I, L33V, S52T, Q55A, S94L
B34: 371_F07 (antibody, V domains shown)
VH: B1 VH with D30S, D31S, S49A
VL: B1 VL with S52T, Q55A, Y92D, D93S, S94N
B35: 372_D07 (antibody, V domains shown)
VH: B1 VH with D30S, D31S, H35N, S49A
VL: B1 VL with T31S, S52T, L54R, Q55A, D93E
B36: 366_A08 (antibody, V domains shown)
VH: B1 VH with G33S, H35N, G55S, T58K, S59G, A99G, T101N
VL: B1 VL with L30V, T31S, L33V, L47V, S52T, L54R, Q55A, D93N
B37: 374_B01 (antibody, V domains shown)
VH: B1 VH with D31S, S49A, G55S
VL: B1 VL with T31S
B38: 367_D08 (antibody, V domains shown)
VH: B1 VH with D30S, G33S, H35N, S49A, A99G, T101N
VL: B1 VL with T31S, L47V, S52T, L54R, Q55H, Y92D, S94L
B39: 367_B12 (antibody, V domains shown)
VH: B1 VH with D30S, D31S, S49A, G50S, T58K, A99G, T101N
VL: B1 VL with T31S, L33V, L47V, S52T, Q55A, S94T
B40: 367_D06 (antibody, V domains shown)
VH: B1 VH with D31S, G33S, H35N, S49A, A99G, T101N
VL: B1 VL with L30S, L47V, S52T, Q55A, D93N
B41: 365_E12 (antibody, V domains shown)
VH: B1 VH with D30S, H35N, G50N, S59G, A99G, T101N, H106A
VL: B1 VL with S52T, L54R, Q55A, D93E, S94T
B42: 365_C05 (antibody, V domains shown)
VH: B1 VH with D30S, G33S, H35N, T58K, S59G, A99G, T101N
VL: B1 VL with S52T, L54R, Q55H, D93N
B43: 367_A12 (antibody, V domains shown)
VH: B1 VH with D30S, D31S, H35N, G55S, A99G, T101N
VL: B1 VL with T31S, S52T, Q55H, D93N, S94N
B44: 373_D11 (antibody, V domains shown)
VH: B1 VH with D30S, D31S, S49A
VL: B1 VL with L33V, S52T, L54R, Q55A, S94N
B45: 365_F03 (antibody, V domains shown)
VH: B1 VH with D31S, G33S, H35N, G50S, A99G, T101N
VL: B1 VL with T31S, S52T, L54R, Q55A, S94N
B46: 373_B01 (antibody, V domains shown)
VH: B1 VH with D31S, T58K
VL: B1 VL with T31S, L33V, L47V, S52T, L54R, Q55A, S94L
B47: 367_D12 (antibody, V domains shown)
VH: B1 VH with D30S, D31S, G33S, H35N, G50S, S59G, A99G, T101N
VL: B1 VL with L30V, T31S, L33V, L47V, S52T, L54R, Q55A, D93E
B48: 367_A03 (antibody, V domains shown)
VH: B1 VH with D31S, H35N, S49A, A99G, T101N, H106A
VL: B1 VL with L33V, A51T, S52T, L54R, Q55H

Biological target: human Fc (human)
Test: ELISA, negative control

optical density [OD]	Binder
0.339	B1
0.191	B2
0.288	B3
0.374	B4
0.272	B5
0.356	B6
0.371	B7
0.23	B8
0.196	B9
0.215	B10
0.319	B11
0.295	B12
0.233	B13
0.319	B14
0.29	B15
0.387	B16
0.378	B17
0.33	B18
0.265	B19
0.252	B20
0.333	B21
0.326	B22
0.336	B23
0.181	B24

optical density [OD]	Binder
0.25	B25
0.28	B26
0.232	B27
0.25	B28
0.318	B29
0.24	B30
0.308	B31
0.217	B32
0.315	B33
0.425	B34
0.472	B35
0.243	B36
0.173	B37
0.237	B38
0.414	B39
0.283	B40
0.338	B41
0.271	B42
0.39	B43
0.364	B44
0.347	B45
0.197	B46
0.309	B47
0.347	B48
